Results from patent publication US20060222593A1.
“And” between values parts separate entries of the source, which are not always exact repeats. Identical values can stand only once. Like-named read-outs stand apart in the source and are kept apart here. Square brackets hold non-standard residues; d marks the D form. Ends that are not written are not given here.

Key:
[1] = target: T1, ST receptor (rat intestinal membrane) (rat), P23897
T1 chain: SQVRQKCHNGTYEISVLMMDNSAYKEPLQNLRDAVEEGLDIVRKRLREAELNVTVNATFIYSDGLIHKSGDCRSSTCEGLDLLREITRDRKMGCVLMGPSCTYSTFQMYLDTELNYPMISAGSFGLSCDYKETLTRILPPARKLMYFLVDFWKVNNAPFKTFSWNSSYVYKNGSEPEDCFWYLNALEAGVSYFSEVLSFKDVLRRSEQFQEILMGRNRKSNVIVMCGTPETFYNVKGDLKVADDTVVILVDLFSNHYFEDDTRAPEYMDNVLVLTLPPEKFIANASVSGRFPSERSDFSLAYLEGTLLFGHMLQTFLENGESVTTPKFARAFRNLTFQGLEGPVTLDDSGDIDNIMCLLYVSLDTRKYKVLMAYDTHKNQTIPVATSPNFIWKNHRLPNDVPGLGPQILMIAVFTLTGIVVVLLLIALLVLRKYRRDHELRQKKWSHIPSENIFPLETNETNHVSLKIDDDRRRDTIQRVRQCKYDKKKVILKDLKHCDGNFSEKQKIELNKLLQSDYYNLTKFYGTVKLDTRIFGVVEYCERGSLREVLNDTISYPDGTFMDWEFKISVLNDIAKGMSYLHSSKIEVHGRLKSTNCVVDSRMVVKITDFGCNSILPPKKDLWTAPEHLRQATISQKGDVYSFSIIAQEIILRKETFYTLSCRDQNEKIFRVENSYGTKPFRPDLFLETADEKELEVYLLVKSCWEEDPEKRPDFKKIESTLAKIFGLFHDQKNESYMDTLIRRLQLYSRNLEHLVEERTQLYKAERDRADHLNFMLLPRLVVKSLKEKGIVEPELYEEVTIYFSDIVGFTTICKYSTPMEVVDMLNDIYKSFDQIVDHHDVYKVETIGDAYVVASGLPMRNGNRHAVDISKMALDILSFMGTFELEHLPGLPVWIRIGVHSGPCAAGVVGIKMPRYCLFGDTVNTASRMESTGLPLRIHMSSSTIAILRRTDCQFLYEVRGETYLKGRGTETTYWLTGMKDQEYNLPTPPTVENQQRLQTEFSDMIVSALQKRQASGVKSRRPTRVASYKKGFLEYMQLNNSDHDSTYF

[2] = target: T1, ST receptor (rat intestinal membrane) …; assay: radioligand competition binding against [125I]ST1-17 on rat intestinal membrane
[3] = target: T1, ST receptor (rat intestinal membrane) …; assay: radioactive binding assay, labelled compound ca. 0.05 nM on rat intestinal membrane, filtration

CCELCCNPACAGCY (modifications not checked) [CA1-ST5-18]
Ki [1]: 2.8 nM and 3.5 nM | Ki [2]: 2.8 nM | fold reduction in binding efficacy against the unconjugated ST peptide [2]: 10 fold

CCELCCNPACAGCY (modifications not checked) [ST5-18]
Ki [2]: 0.4 nM

CCELCCNPACAGCY (modifications not checked) [99mTc-labelled CA1-ST5-18]
binding, % of total added [3]: 6%

KKKKKKGCCELCCNPACAGCY (modifications not checked) [CA1-(Lys)6-Gly-ST5-18]
Ki [2]: 72 nM

CCELCCNPACAGCY (modifications not checked) [CA3-ST5-18]
Ki [2]: 0.8 nM

GGG[dE][dE][dE]CCELCCNPACAGCY (not fully specified (N-terminus); cysteine pairing not given here) [CA1-(Gly)3-(D-Glu)3-ST5-18]
Ki [2]: 1 nM
